The values below come from article PMC6788056.

Substrate in this series: NC(=O)c1ccc[n+]([C@@H]2O[C@H](COP(=O)([O-])OP(=O)(O)OC[C@H]3O[C@@H](n4cnc5c(N)ncnc54)[C@H](O)[C@@H]3O)[C@@H](O)[C@H]2O)c1
Nature of the series: purified protein. The note with it: NAD^+ binding (NB) domain; varied: cofactor.

B1: cUGDH (C. elegans UDP-glucose dehydrogenase) (Caenorhabditis elegans) (protein)
chain: MTDQVFGKVSKVVCVGAGYVGGPTCAMIAHKCPHITVTVVDMNTAKIAEWNSDKLPIYEPGLDEIVFAARGRNLFFSSDIPKAIAEADLIFISVNTPTKMYGRGKGMAPDLKYVESVSRTIAQYAGGPKIVVEKSTVPVKAAESIGCILREAQKNNENLKFQVLSNPEFLAEGTAMKDLANPDRVLIGGESSPEGLQAVAELVRIYENWVPRNRIITTNTWSSELSKLVANAFLAQRISSINSISAVCEATGAEISEVAHAVGYDTRIGSKFLQASVGFGGSCFQKDVLSLVYLCESLNLPQVADYWQGVININNWQRRRFADKIIAELFNTVTDKKIAIFGFAFKKNTGDTRESSAIHVIKHLMEEHAKLSVYDPKVQKSQMLNDLASVTSAQDVERLITVESDPYAAARGAHAIVVLTEWDEFVELNYSQIHNDMQHPAAIFDGRLILDQKALREIGFRTFAIGTSPDQAYNLFGTAGY
With B1, the K0.5 is 333 ± 18 µM.

B2: hUGDH (human UDP-glucose dehydrogenase) (Homo sapiens) (protein)
chain: MFEIKKICCIGAGYVGGPTCSVIAHMCPEIRVTVVDVNESRINAWNSPTLPIYEPGLKEVVESCRGKNLFFSTNIDDAIKEADLVFISVNTPTKTYGMGKGRAADLKYIEACARRIVQNSNGYKIVTEKSTVPVRAAESIRRIFDANTKPNLNLQVLSNPEFLAEGTAIKDLKNPDRVLIGGDETPEGQRAVQALCAVYEHWVPREKILTTNTWSSELSKLAANAFLAQRISSINSISALCEATGADVEEVATAIGMDQRIGNKFLKASVGFGGSCFQKDVLNLVYLCEALNLPEVARYWQQVIDMNDYQRRRFASRIIDSLFNTVTDKKIAILGFAFKKDTGDTRESSSIYISKYLMDEGAHLHIYDPKVPREQIVVDLSHPGVSEDDQVSRLVTISKDPYEACDGAHAVVICTEWDMFKELDYERIHKKMLKPAFIFDGRRVLDGLHNELQTIGFQIETIGKKVSSKRIPYAPSGEIPKFSLQDPPNKKPKV
Consider B2, for which the K0.5 is 1094 ± 244 µM.
